# Experimental data as given in patent US8926955B2, “Synthesis of polymer conjugates of indolocarbazole compounds” (priority 2008, dated 2015).
# Legend:
# Sprague Dawley rats [1] = test: 13 week dermal toxicity study in rats with 4 week recovery
# Procedure: The purpose of this study was to evaluate the toxicity of the test item in rats after daily dermal administration (6 hours exposure) over a period of 13 weeks and to investigate possible recovery from any potential treatment-related effects over a period of 4 consecutive weeks.
# Three groups, each of 10 male and 10 female Sprague Dawley rats (cf. Table 1: male numbered with even numbers, female numbered with uneven numbers) received the test item by dermal application at dosages of 0.5, 2.5 and 5 mg/kg/day for 13 consecutive weeks (Table 1: group numbers 2-4). A fourth similarly constituted group received the vehicle alone (purified water) and acted as a control (Table 1: group number 1). Five additional animals for each sex were included in the high and control groups (Table 1: group numbers 4 and 1, respectively) for recovery assessment.
# The treatment sites were examined each day, approximately 3 hours after the start of dosing. Irritation of the sites, when compared to the adjacent untreated skin, was assigned a numerical value according to the table below:
# Sprague Dawley rats [2] = test: Acute intravenous toxicity study in rats; type: in vivo, rat
# Procedure: The acute toxicity of the conjugate of Example 3 was investigated after intravenous administration (10 ml/kg in physiological saline) of a single dose to Sprague Dawley rats followed by a 14-day observation period.
# A single group of 5 male and 5 female animals was dosed at 2000 mg/kg. Animals were dosed with the formulated test item at the selected level, just after its preparation, by injection into the tail vein using a hypodermic needle attached to a syringe of suitable capacity, at a dose volume of 10 ml/kg body weight. Throughout the study, all animals were checked twice daily.
# Animals were examined for signs of reaction to treatment on dosing, approximately 30 min, 2 and 4 hours after dosing on day 1, then daily for a total of 14 days. Each animal was weighed on the day of allocation to study, on the day of dosing (day 1) and on days 2, 8 and 15. All animals were killed at the end of the observation period and subjected to necropsy examination.
# [3] = Toxicokinetics (plasma levels) in 13 week dermal rat study
# Procedure: The purpose of this study was to evaluate the toxicity of the test item in rats after daily dermal administration (6 hours exposure) over a period of 13 weeks and to investigate possible recovery from any potential treatment-related effects over a period of 4 consecutive weeks. The toxicokinetic profile was also evaluated.
# Three groups, each of 10 male and 10 female Sprague Dawley rats (cf. Table 1: male numbered with even numbers, female numbered with uneven numbers) received the test item by dermal application at dosages of 0.5, 2.5 and 5 mg/kg/day for 13 consecutive weeks (Table 1: group numbers 2-4). A fourth similarly constituted group received the vehicle alone (purified water) and acted as a control (Table 1: group number 1). Five additional animals for each sex were included in the high and control groups (Table 1: group numbers 4 and 1, respectively) for recovery assessment. In addition, 3 satellite groups for toxicokinetics, including 9 males and 9 females (Table 2: group numbers 5-8, respectively), and 1 control group, including 3 males and 3 females (Table 2: group number 5), were treated as the main groups for toxicokinetic evaluations.
# [4] = 0.5, 2.5 and 5 mg/kg/day dermal, 13 weeks
substance,measurement,setting,value
oxazolidindionic conjugate of K252a with PEG (1892 MW) [test item],adverse effects,"Sprague Dawley rats [1]; 0.5, 2.5 and 5 mg/kg/day",No adverse effects were seen at any of the dose levels
same,body weight,Sprague Dawley rats [1]; [4],No relevant differences in body weight were recorded
same,clinical signs,Sprague Dawley rats [1]; [4],no treatment-related clinical signs were observed
same,food consumption,Sprague Dawley rats [1]; [4],comparable to controls
same,mortality,Sprague Dawley rats [1]; [4],No treatment-related mortality occurred
same,absolute and relative organ weights,Sprague Dawley rats [1]; 13 weeks dermal,No changes in absolute and relative organ weights of toxicological significance were observed
same,clinical chemistry and urinalysis,Sprague Dawley rats [1]; 13 weeks dermal,No changes of toxicological significance were observed
same,macroscopic and microscopic observations,Sprague Dawley rats [1]; 13 weeks dermal,No treatment-related changes were noted
same,terminal body weight,Sprague Dawley rats [1]; 13 weeks dermal,comparable between control and treated groups
same,No Observed Adverse Effect Level (NOAEL),"Sprague Dawley rats [1]; daily dermal administration to rats, 13 weeks",5 mg/kg/day
same,ophthalmic examination,Sprague Dawley rats [1]; end of the treatment period,No treatment-related lesions were detected
same,irritation index at treated sites,"Sprague Dawley rats [1]; erythema/oedema score 0-4, daily dermal, 13 weeks",0
same,haematology,Sprague Dawley rats [1]; partial reversibility at end of recovery period,leucopenia observed in animals of high dose group and in females of medium dose group
same,internal abnormalities at necropsy,Sprague Dawley rats [2]; 2000 mg/kg i.v.,No internal abnormalities were detected
same,clinical signs,"Sprague Dawley rats [2]; 2000 mg/kg i.v., all animals on the day of dosing",reduced activity and piloerection
same,changes in body weight,"Sprague Dawley rats [2]; 2000 mg/kg i.v., end of study",within the expected range
same,abnormalities at the injection site,"Sprague Dawley rats [2]; 2000 mg/kg i.v., tail vein",No abnormalities were observed at the injection site
same,mortality,"Sprague Dawley rats [2]; 2000 mg/kg single intravenous dose, 14-day observation",No mortality occurred
same,local tolerance,Sprague Dawley rats [2]; injected into the tail vein at 2000 mg/kg,locally tolerated
same,toxic effect,Sprague Dawley rats [2]; single intravenous administration at 2000 mg/kg body weight,no toxic effect
same,accumulation,[3]; daily dermal administration over 13 weeks,no accumulation has occurred
same,absorption through the dermal route,[3]; rat plasma sample analyses,only minimally absorbed
